In assay [1] the target is human IgG antibody (human). The experiment in a line: sandwich chemiluminescence immunoassay (HISCL-800); detection reagent stored at 40° C. for 1 week.
Assay [2] addresses human IgG antibody (human). The experiment in a line: sandwich chemiluminescence immunoassay (HISCL-800); PC counts over NC counts, R3 reagent stored at 4° C.
The target in assay [3] is human IgG antibody (human). As to the kind of experiment: sandwich chemiluminescence immunoassay on magnetic particles (HISCL-800); capture biotin-labeled mouse anti-human IgG semi-IgG; binder as detection antibody, 0.055 U/mL.
The target of assay [4] is human IgG antibody (human). The experiment in a line: sandwich chemiluminescence immunoassay on magnetic particles (HISCL-800); capture biotin-labeled mouse anti-human IgG semi-IgG; binder as detection antibody, 0.051 U/mL.
The target in assay [5] is human IgG antibody (human). The experiment in a line: sandwich chemiluminescence immunoassay on magnetic particles (HISCL-800); capture biotin-labeled mouse anti-human IgG semi-IgG; binder as detection antibody, 0.052 U/mL.
Assay [6] addresses T1, human CD80/B7-1 protein (His tag) (human, UniProt P33681 35-242).
T1 construct: Recombinant His-tagged protein used as the antigen solution; also called antigen
T1 sequence (looked up): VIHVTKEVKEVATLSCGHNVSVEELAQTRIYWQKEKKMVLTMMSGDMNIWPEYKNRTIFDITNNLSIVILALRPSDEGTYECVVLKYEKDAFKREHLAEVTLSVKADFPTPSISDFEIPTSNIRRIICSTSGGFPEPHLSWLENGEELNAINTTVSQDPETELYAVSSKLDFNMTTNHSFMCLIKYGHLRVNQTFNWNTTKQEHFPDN
The experiment in a line: sandwich chemiluminescence ELISA; capture rabbit anti-CD80 IgG on plate, antigen 0.005-20 ng/mL, binder as detection antibody at 200 ng/mL. Here is the method:
Rabbit anti-CD80 antibody (IgG) was diluted with PBS to 1 μg/mL. The resulting antibody solution was added to a 96-well black plate at 100 μL/well and allowed to stand overnight at 4° C. to immobilize the antibody in the wells. After removing the antibody solution from the plate, Buffer I′ (100 mM HEPES, 1% BSA, 0.05% ProClin (trademark), 1 mM MgCl₂, 0.1 mM ZnCl₂, pH 8.0) was added at 300 μL/well and allowed to stand overnight at 4° C. for blocking. After removing the solution from the plate, a human CD80/B7-1 protein (His tag) solution (0.005, 0.020, 0.078, 0.313, 1.25, 5.0 or 20 ng/mL) was added as an antigen solution at 100 μL/well. The plate was shaken at room temperature at 500 rpm for 1 hour to perform an antigen-antibody reaction. The plate was washed three times with a HISCL washing solution (Sysmex Corporation), and then each ALP fusion antibody (200 ng/mL) of Example 1 diluted with Buffer I′ was added at 100 μL/well. The plate was shaken at room temperature at 500 rpm for 1 hour to perform an antigen-antibody reaction. After washing the plate with a HISCL washing solution three times, a HISCL R5 reagent (Sysmex Corporation) as a solution of a chemiluminescent substrate of ALP was added at 100 μL/well, and luminescence intensity was immediately measured with FLUOstar OPTIMA (BMG LABTECH).

Residue numbers refer to the chain shown, from its start.

B1: ALP fusion antibody of Example 2 (EK3): Fab of mouse anti-human IgG antibody, Fd-EK3-BIAPII (Fab, part only; not given: Fd and light chain of anti-IgG Fab, part only)
heavy, part: EAAAKEAAAKEAAAKLIPAEEENPAFWNRQAAQALDVAKKLQPIQTAAKNVILFLGDGMGVPTVTATRILKGQMNGKLGPETPLAMDQFPYVALSKTYNVDRQVPDSAGTATAYLCGVKGNYRTIGVSAAARYNQCNTTRGNEVTSVINRAKKAGKAVGVVTTTRVQHASPAGAYAHTVNRNWYSDADLPADAQKNGCQDIAAQLVYNMDIDVILGGGRMYMFPEGTPDPEYPDDASVNGVRKDKQNLVQEWQAKHQGAQYVWNRTALLQAADDSSVTHLMGLFEPADMKYNVQQDHTKDPTLAEMTEAALQVLSRNPRGFYLFVEGGRIDHGHHDGKAYMALTEAIMFDNAIAKANELTSELDTLILVTADHSHVFSFGGYTLRGTSIFGLAPGKALDSKSYTSILYGNGPGYALGGGSRPDVNGSTSEEPSYRQQAAVPLASETHGGEDVAVFARGPQAHLVHGVQEETFVAHIMAFAGCVEPYTDCNLPAPA
B1 registered a Counts (PC, R3 reagent stored at 40° C., 1 week) in assay [1] of 436000 counts. In assay [2], this molecule gave a S/N of 665. In addition, in assay [3], the Counts (PC, R3 reagent stored at 4° C.) is 465000 counts.

B2: ALP fusion antibody of Example 2 (GS1): Fab of mouse anti-human IgG antibody, Fd-GS1-BIAPII (Fab, part only; not given: Fd and light chain of anti-IgG Fab, part only)
heavy, part: GGGGSLIPAEEENPAFWNRQAAQALDVAKKLQPIQTAAKNVILFLGDGMGVPTVTATRILKGQMNGKLGPETPLAMDQFPYVALSKTYNVDRQVPDSAGTATAYLCGVKGNYRTIGVSAAARYNQCNTTRGNEVTSVINRAKKAGKAVGVVTTTRVQHASPAGAYAHTVNRNWYSDADLPADAQKNGCQDIAAQLVYNMDIDVILGGGRMYMFPEGTPDPEYPDDASVNGVRKDKQNLVQEWQAKHQGAQYVWNRTALLQAADDSSVTHLMGLFEPADMKYNVQQDHTKDPTLAEMTEAALQVLSRNPRGFYLFVEGGRIDHGHHDGKAYMALTEAIMFDNAIAKANELTSELDTLILVTADHSHVFSFGGYTLRGTSIFGLAPGKALDSKSYTSILYGNGPGYALGGGSRPDVNGSTSEEPSYRQQAAVPLASETHGGEDVAVFARGPQAHLVHGVQEETFVAHIMAFAGCVEPYTDCNLPAPA
Take B2: the Counts (PC, R3 reagent stored at 40° C., 1 week) in assay [1] is 320000 counts. Further, the S/N in assay [2] turned out to be 737. Moreover, in assay [4], the Counts (PC, R3 reagent stored at 4° C.) is 359000 counts.

B3: ALP fusion antibody of Example 2 (EK1): Fab of mouse anti-human IgG antibody, Fd-EK1-BIAPII (Fab, part only; not given: Fd and light chain of anti-IgG Fab, part only)
heavy, part: B2 heavy, part with G1E, G2A, G3A, G4A, S5K
Regarding B3, the Counts (PC, R3 reagent stored at 40° C., 1 week) in assay [1] stood at 421000 counts. The molecule also displayed a S/N in assay [2] of 927. The Counts (PC, R3 reagent stored at 4° C.) in assay [5] came out at 463000 counts.

B4: ALP fusion antibody of Example 2 (GS3): Fab of mouse anti-human IgG antibody, Fd-GS3-BIAPII (Fab, part only; not given: Fd and light chain of anti-IgG Fab, part only)
heavy, part: GGGGSGGGGSGGGGSLIPAEEENPAFWNRQAAQALDVAKKLQPIQTAAKNVILFLGDGMGVPTVTATRILKGQMNGKLGPETPLAMDQFPYVALSKTYNVDRQVPDSAGTATAYLCGVKGNYRTIGVSAAARYNQCNTTRGNEVTSVINRAKKAGKAVGVVTTTRVQHASPAGAYAHTVNRNWYSDADLPADAQKNGCQDIAAQLVYNMDIDVILGGGRMYMFPEGTPDPEYPDDASVNGVRKDKQNLVQEWQAKHQGAQYVWNRTALLQAADDSSVTHLMGLFEPADMKYNVQQDHTKDPTLAEMTEAALQVLSRNPRGFYLFVEGGRIDHGHHDGKAYMALTEAIMFDNAIAKANELTSELDTLILVTADHSHVFSFGGYTLRGTSIFGLAPGKALDSKSYTSILYGNGPGYALGGGSRPDVNGSTSEEPSYRQQAAVPLASETHGGEDVAVFARGPQAHLVHGVQEETFVAHIMAFAGCVEPYTDCNLPAPA
B4 showed a Counts (PC, R3 reagent stored at 40° C., 1 week) in assay [1] of 331000 counts. In assay [2], this molecule yielded a S/N of 737. The Counts (PC, R3 reagent stored at 4° C.) in assay [4] stood at 364000 counts.

B5: ALP fusion antibody of Example 1 (EK3 linker): Fab of rabbit anti-CD80 antibody, Fd-EK3-BIAPII (Fab)
heavy: QSVEESGGRLVTPGTPLTLTCTASGFSLSNNAVSWVRQAPGEGLEWIGTISSNDNTYYATWAKGRFTISKTSTTVDLKITSPTTEDTATYFCAIYYYGYGYVFNLWGPGTLVTVSSGQPKAPSVFPLAPCCGDTPSSTVTLGCLVKGYLPEPVTVTWNSGTLTNGVRTFPSVRQSSGLYSLSSVVSVTSSSQPVTCNVAHPATNTKVDKTVAPSTCSKPTEAAAKEAAAKEAAAKLIPAEEENPAFWNRQAAQALDVAKKLQPIQTAAKNVILFLGDGMGVPTVTATRILKGQMNGKLGPETPLAMDQFPYVALSKTYNVDRQVPDSAGTATAYLCGVKGNYRTIGVSAAARYNQCNTTRGNEVTSVINRAKKAGKAVGVVTTTRVQHASPAGAYAHTVNRNWYSDADLPADAQKNGCQDIAAQLVYNMDIDVILGGGRMYMFPEGTPDPEYPDDASVNGVRKDKQNLVQEWQAKHQGAQYVWNRTALLQAADDSSVTHLMGLFEPADMKYNVQQDHTKDPTLAEMTEAALQVLSRNPRGFYLFVEGGRIDHGHHDGKAYMALTEAIMFDNAIAKANELTSELDTLILVTADHSHVFSFGGYTLRGTSIFGLAPGKALDSKSYTSILYGNGPGYALGGGSRPDVNGSTSEEPSYRQQAAVPLASETHGGEDVAVFARGPQAHLVHGVQEETFVAHIMAFAGCVEPYTDCNLPAPA
light: ELVMTQTPASVSEPVGGTVTINCQASEDIYSSLAWYQQKPGQRPKLLMYYASTLASGVPSRFKGSGSGTEFTLTISDLECADAATYYCQSYYLSSSSRYGNAFGGGTEVVVKGDPVAPTVLIFPPAADQVATGTVTIVCVANKYFPDVTVTWEVDGTTQTTGIENSKTPQNSADCTYNLSSTLTLTSTQYNSHKEYTCKVTQGTTSVVQSFIG
notes: Fab-enzyme fusion, dimer through the ALP subunits
Consider B5, for which, in assay [6], the binding result is given as “binds”.

The values are drawn from patent US20210371867A1 (SYSMEX, published 2021).
